Here are results for 1 molecule from paper PMC6126647.

In the series the target is MmCPDII (class II CPD photolyase) (UniProt Q8PYK9 1-464). The series can be described thus: X-ray crystallography (2.7 A); oxidized FAD; dark, unrepaired CPD; Co-crystallization: protein in 10 mM Tris-HCl pH 8.0, 100 mM NaCl with 1.25x dsDNA (in 100 mM Tris-HCl pH 8.0, 100 mM NaCl), 30 min in dark; mixed 1:1 with 0.1.

B1: 14-mer duplex with natural phosphodiester-linked cis-syn CPD (PDM DNA) (dsDNA)
DNA 1: ATCGGCTTCGCGCA
DNA 2: TGCGCGAAGCCGAT
modifications: cis-syn cyclobutane thymine dimer T7<>T8 in strand 1, natural intra-lesion phosphodiester
As to B1, the binding result is “binds”.
